Experimental data reported in PMC5869396 (Toxins, 2018).

How the values were obtained:
[1] = biological target: T1, recombinant Shiga toxin-2a B subunit (rStx2aB), C-terminal 6xHis tag (Escherichia coli O157:H7 EDL933 …); assay: crystal structure; settings: both partners purified
T1 construct: source: E. coli BL21 (pET22b), periplasmic extract, purified (IMAC, SEC); not shown: His6, C-terminal, kept

[2] = biological target: T2, Stx2a holotoxin (Stx2a A subunit with the Stx2a B pentamer) (Escherichia coli, Stx2a strain not …, UniProt P09385;P09386); assay: pull-down; settings: one partner purified
T2 construct: copies: 1 + 5

B1: Nb113 (expressed from pMECS, C-terminal HA and His6 tags) (VHH)
VHH: QVQLQESGGGLVQPGGSLRLSCAASGFTFSSYYMSWVRQAPGKGPEWVSGINTGGVGTRYADSVKGRFTISRDNAKNTLYLQMNSLKPEDTALYYCAIGEGGNRNYWGQGTQVTVSS
notes: source: E. coli WK6 (pMECS), periplasmic extract, purified (IMAC, SEC)
For B1, the “stoichiometry N” value [1] was 5 per pentamer.

B2: monovalent Nb113 (expressed from pHEN6c, His6 tag, without the HA tag) (VHH)
VHH: B1 VHH
notes: also called Nb113 monovalent; monomeric Nb113; source: E. coli WK6 (pHEN6c), purified (IMAC, SEC)
B2: binds [2].
